Measurements from patent publication US20100172907A1 (Hoffmann-La Roche, published 2010).
Positions count from the first letter of the chain named. Groups on a side chain read outwards from the residue. No end group written: not given here. NSMP = not defined here

T1: BSA-conjugated Aβ heptapeptide FFAEDVC (C-terminal Cys coupled to NSMP-activated BSA)
T1 construct: also called Peptide 19-24
T1 peptide: FFAEDVC

T2: BSA-conjugated Aβ heptapeptide VFFAEDC (C-terminal Cys coupled to NSMP-activated BSA)
T2 construct: also called Peptide 18-23
T2 peptide: VFFAEDC

T3: BSA-conjugated Aβ heptapeptide AEFRHDC (C-terminal Cys coupled to NSMP-activated BSA)
T3 construct: also called Peptide 2-7
T3 peptide: AEFRHDC

T4: BSA-conjugated Aβ heptapeptide LVFFAEC (reading uncertain; also: BSA conjugate)
T4 construct: also called Peptide 17-22
T4 peptide: LVFFAEC([NSMP-BSA])

B1: MS-Roche #8.1.H1 Fab (Fab, V domains shown)
VH: QVQLVESGGGLVQPGGSLRLSCAASGFTFSSYAMSWVRQAPGKGLEWVSAISRSGSNIYYADSVKGRFTISRDNSKNTLYLQMNSLRAEDTAVYYCARLLSRGYNGYYHKFDVWGQGTLVTVSS
VL: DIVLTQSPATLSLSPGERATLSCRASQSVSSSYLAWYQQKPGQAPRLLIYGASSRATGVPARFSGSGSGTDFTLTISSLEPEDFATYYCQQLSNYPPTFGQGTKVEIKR
B2: MS-Roche #8.2.L1 Fab (Fab, V domains shown)
VH: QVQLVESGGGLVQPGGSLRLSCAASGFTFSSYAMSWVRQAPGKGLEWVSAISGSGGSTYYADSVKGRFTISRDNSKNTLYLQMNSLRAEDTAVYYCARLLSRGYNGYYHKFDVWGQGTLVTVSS
VL: DIVLTQSPATLSLSPGERATLSCRASQRVSGRYLAWYQQKPGQAPRLLIYGASSRATGVPARFSGSGSGTDFTLTISSLEPEDFATYYCQQLSSYPPTFGQGTKVEIKR
B3: MS-Roche #7.11 Fab (Fab, V domains shown)
VH: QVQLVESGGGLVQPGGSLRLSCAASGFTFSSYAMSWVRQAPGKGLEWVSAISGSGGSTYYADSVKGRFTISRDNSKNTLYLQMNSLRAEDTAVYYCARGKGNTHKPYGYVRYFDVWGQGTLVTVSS
VL: B2 VL with R28S, G31S, R32S, L92V, S93Y, Y95P, P97H
B4: MS-Roche #7.11.H2 Fab (Fab, V domains shown)
VH: QVQLVESGGGLVQPGGSLRLSCAASGFTFSSYAMSWVRQAPGKGLEWVSAINANGYKKYYADSVKGRFTISRDNSKNTLYLQMNSLRAEDTAVYYCARGKGNTHKPYGYVRYFDVWGQGTLVTVSS
VL: B2 VL with R28S, G31S, R32S, L92V, S93Y, Y95P, P97H
B5: MS-Roche #7.11.H1 Fab (Fab, V domains shown)
VH: B4 VH with A50G, N54A, Y56F, K57R, K58T
VL: B2 VL with R28S, G31S, R32S, L92V, S93Y, Y95P, P97H
B6: MS-Roche #7.12 Fab (Fab, V domains shown)
VH: B4 VH with A33G, A50N, N52S, A53G, N54S, Y56S, K57S, K58T
VL: DIVLTQSPATLSLSPGERATLSCRASQYVSSPYLAWYQQKPGQAPRLLISGSSNRATGVPARFSGSGSGTDFTLTISSLEPEDFAVYYCLQLYNIPNTFGQGTKVEIKR
B7: MS-Roche #3.2.H2 Fab (Fab, V domains shown)
VH: QVQLVESGGGLVQPGGSLRLSCAASGFTFSSYAMSWVRQAPGKGLEWVSAISQRGQFTYYADSVKGRFTISRDNSKNTLYLQMNSLRAEDTAVYYCARLTHYARYYRYFDVWGQGTLVTVSS
VL: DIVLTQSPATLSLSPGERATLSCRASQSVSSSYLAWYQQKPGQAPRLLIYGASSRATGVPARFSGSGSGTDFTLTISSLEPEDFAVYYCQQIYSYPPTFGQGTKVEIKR
B8: MS-Roche #3.4.H17 Fab (Fab, V domains shown)
VH: B7 VH with Q53E, R54F, T58I
VL: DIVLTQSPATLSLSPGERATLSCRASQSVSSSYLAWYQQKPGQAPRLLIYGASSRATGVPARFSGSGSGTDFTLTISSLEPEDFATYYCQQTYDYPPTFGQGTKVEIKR
B9: MS-Roche #3.4.H5 Fab (Fab, V domains shown)
VH: B7 VH with A50V, R54V, Q56A, F57H, T58I
VL: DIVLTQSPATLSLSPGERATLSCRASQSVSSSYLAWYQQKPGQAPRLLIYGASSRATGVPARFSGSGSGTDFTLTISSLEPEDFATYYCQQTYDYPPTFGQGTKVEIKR
B10: MS-Roche #3.4.H1 Fab (Fab, V domains shown)
VH: B7 VH with Q53E, R54T, G55S, Q56I, F57R, T58K
VL: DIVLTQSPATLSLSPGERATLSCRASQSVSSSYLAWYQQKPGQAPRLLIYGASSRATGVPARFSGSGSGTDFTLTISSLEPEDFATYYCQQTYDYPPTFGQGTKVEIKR
B11: MS-Roche #3.3.H3 Fab (Fab, V domains shown)
VH: B7 VH with R54N, Q56F, F57H, T58I
VL: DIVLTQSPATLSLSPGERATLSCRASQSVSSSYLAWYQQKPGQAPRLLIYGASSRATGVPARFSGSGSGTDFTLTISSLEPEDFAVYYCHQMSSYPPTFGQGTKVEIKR
B12: MS-Roche #3.3.H1 Fab (Fab, V domains shown)
VH: B7 VH with A50V, Q53E, R54K, G55S, Q56R, T58I
VL: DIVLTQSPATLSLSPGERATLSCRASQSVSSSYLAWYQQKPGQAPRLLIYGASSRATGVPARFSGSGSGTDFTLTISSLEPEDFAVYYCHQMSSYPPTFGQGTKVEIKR
B13: MS-Roche #3.4.L11 Fab (Fab, V domains shown)
VH: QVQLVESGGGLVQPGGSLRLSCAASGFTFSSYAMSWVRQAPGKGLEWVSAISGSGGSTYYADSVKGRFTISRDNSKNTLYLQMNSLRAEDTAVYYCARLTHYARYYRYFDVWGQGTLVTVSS
VL: B2 VL with R28L, S30G, G31R, R32A, L92T, S93Y, S94D
B14: MS-Roche #3.4.H3 Fab (Fab, V domains shown)
VH: B7 VH with A50V, R54T, Q56R, F57K, T58I
VL: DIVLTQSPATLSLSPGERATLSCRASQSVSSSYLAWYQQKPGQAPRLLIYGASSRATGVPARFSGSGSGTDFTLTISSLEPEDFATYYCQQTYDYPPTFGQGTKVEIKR
B15: MS-Roche #3.6.H6 Fab (Fab, V domains shown)
VH: B7 VH with Q53E, R54H, Q56T, F57N, T58I
VL: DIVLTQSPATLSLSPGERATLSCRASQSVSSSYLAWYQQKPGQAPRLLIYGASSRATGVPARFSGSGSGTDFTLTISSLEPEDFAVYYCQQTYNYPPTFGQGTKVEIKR
B16: MS-Roche #3.6.H1 Fab (Fab, V domains shown)
VH: B7 VH with A50V, Q53E, R54S, F57Y, T58K
VL: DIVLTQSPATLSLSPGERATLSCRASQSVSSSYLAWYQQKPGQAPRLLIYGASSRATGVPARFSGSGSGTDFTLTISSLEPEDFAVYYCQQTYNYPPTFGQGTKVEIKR
B17: MS-Roche #3.6.H2 Fab (Fab, V domains shown)
VH: B7 VH with A50V, Q53E, Q56I, F57N
VL: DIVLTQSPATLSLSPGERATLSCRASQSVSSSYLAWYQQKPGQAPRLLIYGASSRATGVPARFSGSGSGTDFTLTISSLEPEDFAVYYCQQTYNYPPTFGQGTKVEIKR
B18: MS-Roche #3.4H7×3.4L9 Fab (Fab, V domains shown)
VH: QLVESGGGLVQPGGSLRLSCAASGFTFSSYAMSWVRQAPGKGLEWVSVISETGKNIYYADSVKGRFTISRDNSKNTLYLQMNSLRAEDTAVYYCARLTHYARYYRYFDVWGQGTLVTVSS
VL: B2 VL with Q27R, V29I, S30H, G31V, R32Y, L92T, S93Y, S94D
notes: cross-cloned Fab
B19: MS-Roche #3.4H3×3.4L7 Fab (Fab, V domains shown)
VH: B18 VH with E51Q, K54R, N55K
VL: B2 VL with V29L, S30G, G31R, R32L, L92T, S93Y, S94D
notes: cross-cloned Fab
B20: MS-Roche #3.3H1×3.4L9 Fab (Fab, V domains shown)
VH: B18 VH with T52K, G53S, K54R, N55F
VL: B2 VL with Q27R, V29I, S30H, G31V, R32Y, L92T, S93Y, S94D
notes: cross-cloned Fab
B21: MS-Roche #3.4H1×3.4L9 Fab (Fab, V domains shown)
VH: B18 VH with V48A, G53S, K54I, N55R, I56K
VL: B2 VL with Q27R, V29I, S30H, G31V, R32Y, L92T, S93Y, S94D
notes: cross-cloned Fab

Biological target: T1, BSA-conjugated Aβ heptapeptide FFAEDVC
Assay: ELISA
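Throughout, for OD ratio 18-23/BSA: ELISA of antibody at 10 or 2 µg/ml binding plate-coated BSA–peptide conjugates, detected with HRP anti-human Ig and TMB colour, mock-treated BSA without peptide as negative control.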
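Throughout, for OD ratio 19-24/BSA: ELISA of antibody at 10 or 2 µg/ml binding plate-coated BSA–peptide conjugates, detected with HRP anti-human Ig and TMB colour, mock-treated BSA without peptide as negative control.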
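Throughout, for Peptide-ratio 18-23/2-7: ELISA of antibody at 10 or 2 µg/ml binding plate-coated BSA–peptide conjugates, detected with HRP anti-human Ig and TMB colour, mock-treated BSA without peptide as negative control.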
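Throughout, for Peptide-ratio 19-24/2-7: ELISA of antibody at 10 or 2 µg/ml binding plate-coated BSA–peptide conjugates, detected with HRP anti-human Ig and TMB colour, mock-treated BSA without peptide as negative control.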
Experimental: (§1) 50 μl of NSMP activated BSA (6.7 mg/ml) was diluted with 50 μl of PBS, 0.1% sodium azide and 10 μl of peptide solution (1 mM in DMSO) was added. As negative control activated BSA was mock-treated without peptide addition. After 4 hrs at room temperature the reaction was stopped by addition of 10 μl of 10 mM Cystein. An aliquot of the conjugate reaction mixture was diluted 1:100 with 0.1M sodium bicarbonate buffer and immediately filled into the wells (100 μl) of ELISA plates (Nunc Immuno-Plate). After standing 16 hrs at 4° C. 100 μl blocking buffer (as above) was added to each well and incubated for another 30 minutes. The plates were washed with 2×300 μl/well TBST (as above) and filled with 100 μl antibody at 10 μg/ml or 2 μg/ml in blocking buffer. The plates were kept 16 hours at 4° C. and washed with 2×300 μl TBST. 100 μl/well HRP-conjugated anti-human Ig H+L (Pierce, dilution 1:1000 with blocking buffer) was added and incubated for 1 hour at ambient temperature. The plates were washed with 3×300 μl/well TBST. Colour development was started by addition of 100 μl tetra-methyl benzidine/hydrogen peroxide reagent.

OD ratio 19-24/BSA	Peptide-ratio 19-24/2-7	Binder
25	0.86	B1
31	1.22	B2
9	0.24	B3
14	0.41	B4
8	0.25	B5
7	0.18	B6
20	0.77	B7
11	0.39	B8
4	0.14	B9
2	0.07	B10
2	0.06	B11
8	0.35	B12
5	0.16	B13
11	0.5	B14
7	0.28	B15
5	0.22	B16
3	0.16	B17

Biological target: T2, BSA-conjugated Aβ heptapeptide VFFAEDC
Assay: ELISA
Experimental: as §1

OD ratio 18-23/BSA	Peptide-ratio 18-23/2-7	Binder
25	0.88	B1
32	1.26	B2
15	0.41	B3
12	0.36	B4
9	0.29	B5
8	0.21	B6
23	0.88	B7
12	0.43	B8
13	0.46	B9
8	0.3	B10
5	0.16	B11
12	0.52	B12
20	0.65	B13
17	0.77	B14
4	0.16	B15
13	0.57	B16
8	0.42	B17

Biological target: T3, BSA-conjugated Aβ heptapeptide AEFRHDC
Assay: ELISA
Experimental: as §1

OD ratio 2-7/BSA	Binder
29	B1
26	B2
37	B3
34	B4
31	B5
38	B6
26	B7
28	B8
28	B9
27	B10
31	B11
23	B12
31	B13
22	B14
25	B15
23	B16
19	B17

Biological target: T4, BSA-conjugated Aβ heptapeptide LVFFAEC
Assay: ELISA
Experimental: as §1

OD ratio 17-22/BSA	Peptide-ratio 17-22/2-7	Binder
22	0.77	B1
15	0.6	B2
11	0.3	B3
10	0.29	B4
8	0.25	B5
6	0.16	B6
12	0.46	B7
5	0.18	B8
5	0.18	B9
2	0.07	B10
2	0.06	B11
4	0.17	B12
6	0.19	B13
9	0.41	B14
1	0.04	B15
3	0.13	B16
2	0.11	B17

What follows are binders tested against T5, human Aβ (1-40) peptide (human) (assay: SPR, immobilized fibers;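 note: biacore SPR using in vitro grown Aβ1-40 or Aβ1-42 fibrils immobilized on the chip with Fab analytes, KD from koff/kon fits or equilibrium isotherms based on total Fab concentration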).
T5 construct: also called Aβ1-40 fibers
Experimental: (§2) Biacore2000 and Biacore3000 instruments were used for these measurements. Aβ1-40 and Aβ1-42 fibers were generated in vitro by incubation of synthetic peptides at a concentration of 200 μg/ml in 10 mM Na-acetate buffer (pH 4.0) for three days at 37° C. […] For binders with slow kinetics KD values were calculated by curve fitting of the time-dependent sensor responses, i.e. from the ratio of koff/kₒₙ. Binders with fast kinetics were analyzed by fitting the concentration-dependent sensor responses at equilibrium (adsorption-isotherms). KD values were calculated from the Biacore sensograms based on the total Fab concentration as determined by a protein assay. […] Briefly, time-dependent protein binding to Aβ1-40 fibers immobilized on the Biacore chip was measured during the association phase under mass-limited conditions at different flow rates of the analyte solution.

Kd	Binder
13.6 nM	B1
4.8 nM	B2
22 nM	B3
0.3 nM	B4
12.7 nM	B5
28 nM	B6
5.2 nM	B7
2 nM	B8
26.5 nM	B9
13.5 nM	B10
1.4 nM	B11
17.1 nM	B12
5.3 nM	B13
6.7 nM	B14
36 nM	B15
18.9 nM	B16
19.8 nM	B17

The binders below were run against T6, Aβ (1-42) peptide (human) (assay: SPR, immobilized fibers;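 note: biacore SPR using in vitro grown Aβ1-40 or Aβ1-42 fibrils immobilized on the chip with Fab analytes, KD from koff/kon fits or equilibrium isotherms based on total Fab concentration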).
T6 construct: also called Aβ1-42 fibers; Aβ4
Experimental: as §2

Kd	Binder
9.2 nM	B1
3.7 nM	B2
74 nM	B3
0.3 nM	B4
6.7 nM	B5
60 nM	B6
1.1 nM	B7
4.3 nM	B8
36 nM	B9
14 nM	B10
3.3 nM	B11
19.4 nM	B12
2.6 nM	B13
8.4 nM	B14
11.8 nM	B15
23.1 nM	B16
54 nM	B17

The binders below were run against T5, human Aβ (1-40) peptide (assay: SPR, kinetic fit, immobilized fibers;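 note: surface plasmon resonance on a Biacore chip bearing in vitro formed Aβ1-40 or Aβ1-42 fibers, KD taken as koff/kon by fitting time-resolved sensor responses, based on total Fab concentration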).
Experimental: as §2

Kd	Binder
2.66 nM	B18
0.92 nM	B19
2.16 nM	B20
0.25 nM	B21

The binders below were run against T6, Aβ (1-42) peptide (assay: SPR, kinetic fit, immobilized fibers;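 note: surface plasmon resonance on a Biacore chip bearing in vitro formed Aβ1-40 or Aβ1-42 fibers, KD taken as koff/kon by fitting time-resolved sensor responses, based on total Fab concentration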).
Experimental: as §2

Kd	Binder
3.51 nM	B18
0.92 nM	B19
2.97 nM	B20
0.5 nM	B21
